Values of other authors, collected in article PMC8442009.

What was measured:
[1] = biological target: IL-4Rα (Homo sapiens) (UniProt P24394)
[2] = biological target: IL-4Rα/γc (Homo sapiens) (UniProt P24394)
[3] = biological target: γc (Homo sapiens) (UniProt P31785)
UniProt P31785, sequence (P31785 23-262): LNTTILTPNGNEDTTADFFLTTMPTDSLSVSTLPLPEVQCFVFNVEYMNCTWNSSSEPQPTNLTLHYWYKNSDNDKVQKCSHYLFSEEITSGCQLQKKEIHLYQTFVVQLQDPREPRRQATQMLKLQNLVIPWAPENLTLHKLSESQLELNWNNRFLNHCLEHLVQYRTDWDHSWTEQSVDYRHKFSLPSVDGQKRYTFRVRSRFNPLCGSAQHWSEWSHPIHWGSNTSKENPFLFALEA

**Q.** With IL-4 (from UniProt P05112) as the substance, how does the Kd [1] read?
**A.** 0.266 nM

**Q.** And the Kd [2]?
**A.** 0.079 nM

**Q.** For IL-4-IL-4Rα (from UniProt P05112), which Kd [3] is on record?
**A.** > 500 nM
